Results as given in patent US20250019439A1 (Adimab, published 2025).

Key:
ADI-22523 Fab = target: T1, ADI-22523 Fab; test: BLI; tip anti-ID IgG, solution ADI-22523 Fab
T1 construct: anti-CD3 Fab by papain digestion of the IgG
Procedure, shortened: (§1)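 Sensors carrying captured anti-ID IgG were equilibrated 30 min in assay buffer before a 60 s baseline. Equilibrium KD was taken as koff/kon from a 1:1 model.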

CTL-62228 = target: T2, CTL-62228; test: SPR Carterra, yeast anti-ID
T2 construct: also called glofitamab
Procedure, shortened: (§2)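 Goat anti-human Fc was amine-coupled to an HC30M sensor chip, then anti-CD3 antibodies at 100 nM were flowed over discrete spots for 5 min. Anti-idiotype antibodies were run in non-regenerative kinetic cycles at 25° C in HBSTE, with 300s dissociation. Blank-subtracted sensorgrams were fitted 1:1.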

ADI-48576 = target: T3, ADI-48576; test: SPR Carterra, yeast anti-ID
T3 construct: pH-dependent anti-CD3 antibody made in CHO cells
Procedure, shortened: as §2

CTL-62227 = target: T4, CTL-62227; test: SPR Carterra, yeast anti-ID
T4 construct: also called odronextamab
Procedure, shortened: as §2

ADI-48592 = target: T5, ADI-48592; test: SPR Carterra, yeast anti-ID
T5 construct: pH-dependent anti-CD3 antibody made in CHO cells
Procedure, shortened: as §2

CTL-62240 = target: T6, CTL-62240; test: SPR Carterra, yeast anti-ID
T6 construct: also called ONO-4685
Procedure, shortened: as §2

ADI-22523 IgG = target: T7, ADI-22523 IgG; test: BLI; tip anti-ID IgG, solution ADI-22523 IgG
T7 construct: anti-CD3 IgG
Procedure, shortened: as §1

ADI-26920 IgG = target: T8, ADI-26920 IgG; test: SPR Carterra avidity, yeast anti-ID, *koff limit
T8 construct: anti-CD3 IgG
Procedure, shortened: as §2

ADI-26906 IgG = target: T9, ADI-26906 IgG; test: SPR Carterra avidity, yeast anti-ID, *koff limit
T9 construct: anti-CD3 IgG
Procedure, shortened: as §2

ADI-26919 = target: T10, ADI-26919; test: SPR Carterra avidity, yeast anti-ID, *koff limit
T10 construct: anti-CD3 antibody made in CHO cells, captured by anti-human Fc
Procedure, shortened: as §2

ADI-76359 = target: T11, ADI-76359; test: SPR Carterra avidity, yeast anti-ID
T11 construct: anti-CD3 antibody made in CHO cells, captured by anti-human Fc
Procedure, shortened: as §2

ADI-70330 = target: T12, ADI-70330; test: SPR Carterra avidity, yeast anti-ID
T12 construct: anti-CD3 antibody made in CHO cells, captured by anti-human Fc
Procedure, shortened: as §2

ADI-67450 = target: T13, ADI-67450; test: SPR Carterra avidity, yeast anti-ID
T13 construct: anti-CD3 antibody made in CHO cells, captured by anti-human Fc
Procedure, shortened: as §2

ADI-67445 = target: T14, ADI-67445; test: SPR Carterra avidity, yeast anti-ID
T14 construct: anti-CD3 antibody made in CHO cells, captured by anti-human Fc
Procedure, shortened: as §2

ADI-48587 = target: T15, ADI-48587; test: SPR Carterra avidity, yeast anti-ID
T15 construct: pH-dependent anti-CD3 antibody made in CHO cells
Procedure, shortened: as §2

ADI-74965 = target: T16, ADI-74965; test: SPR Carterra avidity, yeast anti-ID
T16 construct: pH-dependent anti-CD3 antibody made in CHO cells
Procedure, shortened: as §2

ADI-70327 = target: T17, ADI-70327; test: SPR Carterra avidity, yeast anti-ID
T17 construct: anti-CD3 antibody made in CHO cells, captured by anti-human Fc
Procedure, shortened: as §2

ADI-26912 = target: T18, ADI-26912; test: SPR Carterra avidity, yeast anti-ID
T18 construct: anti-CD3 antibody made in CHO cells, captured by anti-human Fc
Procedure, shortened: as §2

ADI-74967 = target: T19, ADI-74967; test: SPR Carterra avidity, yeast anti-ID
T19 construct: pH-dependent anti-CD3 antibody made in CHO cells
Procedure, shortened: as §2

ADI-26909 = target: T20, ADI-26909; test: SPR Carterra avidity, yeast anti-ID
T20 construct: anti-CD3 antibody made in CHO cells, captured by anti-human Fc
Procedure, shortened: as §2

ADI-74966 = target: T21, ADI-74966; test: SPR Carterra avidity, yeast anti-ID
T21 construct: pH-dependent anti-CD3 antibody made in CHO cells
Procedure, shortened: as §2

ADI-50024 = target: T22, ADI-50024; test: SPR Carterra avidity, yeast anti-ID
T22 construct: anti-CD3 antibody made in CHO cells, captured by anti-human Fc
Procedure, shortened: as §2

ADI-76361 = target: T23, ADI-76361; test: SPR Carterra avidity, yeast anti-ID
T23 construct: anti-CD3 antibody made in CHO cells, captured by anti-human Fc
Procedure, shortened: as §2

ADI-26921 IgG = target: T24, ADI-26921 IgG; test: SPR Carterra avidity, yeast anti-ID
T24 construct: anti-CD3 IgG
Procedure, shortened: as §2

ADI-76358 = target: T25, ADI-76358; test: SPR Carterra avidity, yeast anti-ID
T25 construct: anti-CD3 antibody made in CHO cells, captured by anti-human Fc
Procedure, shortened: as §2

ADI-48650 = target: T26, ADI-48650; test: SPR Carterra avidity, yeast anti-ID
T26 construct: pH-dependent anti-CD3 antibody made in CHO cells
Procedure, shortened: as §2

ADI-70326 = target: T27, ADI-70326; test: SPR Carterra avidity, yeast anti-ID
T27 construct: anti-CD3 antibody made in CHO cells, captured by anti-human Fc
Procedure, shortened: as §2

ADI-26913 IgG = target: T28, ADI-26913 IgG; test: SPR Carterra avidity, yeast anti-ID
T28 construct: anti-CD3 IgG
Procedure, shortened: as §2

ADI-76360 = target: T29, ADI-76360; test: SPR Carterra avidity, yeast anti-ID
T29 construct: anti-CD3 antibody made in CHO cells, captured by anti-human Fc
Procedure, shortened: as §2

ADI-76362 = target: T30, ADI-76362; test: SPR Carterra avidity, yeast anti-ID
T30 construct: anti-CD3 antibody made in CHO cells, captured by anti-human Fc
Procedure, shortened: as §2

ADI-26924 = target: T31, ADI-26924; test: SPR Carterra avidity, yeast anti-ID
T31 construct: anti-CD3 antibody made in CHO cells, captured by anti-human Fc
Procedure, shortened: as §2

ADI-76357 = target: T32, ADI-76357; test: SPR Carterra avidity, yeast anti-ID
T32 construct: anti-CD3 antibody made in CHO cells, captured by anti-human Fc
Procedure, shortened: as §2

ADI-74968 = target: T33, ADI-74968; test: SPR Carterra avidity, yeast anti-ID
T33 construct: pH-dependent anti-CD3 antibody made in CHO cells
Procedure, shortened: as §2

ADI-26943 = target: T34, ADI-26943; test: SPR Carterra avidity, yeast anti-ID
T34 construct: anti-CD3 antibody made in CHO cells, captured by anti-human Fc
Procedure, shortened: as §2

ADI-67447 = target: T35, ADI-67447; test: SPR Carterra avidity, yeast anti-ID
T35 construct: anti-CD3 antibody made in CHO cells, captured by anti-human Fc
Procedure, shortened: as §2

ADI-26915 = target: T36, ADI-26915; test: SPR Carterra avidity, yeast anti-ID
T36 construct: anti-CD3 antibody made in CHO cells, captured by anti-human Fc
Procedure, shortened: as §2

ADI-26916 IgG = target: T37, ADI-26916 IgG; test: SPR Carterra avidity, yeast anti-ID
T37 construct: anti-CD3 IgG
Procedure, shortened: as §2

T14 sequence (VH, as listed by the source limits assumed, chain 1 of 2): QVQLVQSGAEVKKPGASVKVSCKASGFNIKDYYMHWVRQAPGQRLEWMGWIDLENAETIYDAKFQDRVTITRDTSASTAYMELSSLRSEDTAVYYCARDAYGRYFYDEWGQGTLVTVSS
T14 sequence (VL, as listed by the source limits assumed, chain 2 of 2): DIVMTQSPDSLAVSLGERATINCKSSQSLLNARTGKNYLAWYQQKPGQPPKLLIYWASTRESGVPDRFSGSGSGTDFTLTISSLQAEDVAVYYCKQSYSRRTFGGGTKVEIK
T34 sequence (VH, as listed by the source, chain 1 of 2): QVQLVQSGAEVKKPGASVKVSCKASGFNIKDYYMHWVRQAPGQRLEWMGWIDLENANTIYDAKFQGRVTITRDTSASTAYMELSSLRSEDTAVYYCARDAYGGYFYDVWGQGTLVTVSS
T34 sequence (VL, as listed by the source, chain 2 of 2): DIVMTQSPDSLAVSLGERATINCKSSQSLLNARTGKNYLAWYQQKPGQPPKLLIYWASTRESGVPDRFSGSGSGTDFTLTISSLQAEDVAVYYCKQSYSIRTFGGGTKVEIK
T8 sequence (VH, as listed by the source limits assumed, chain 1 of 2): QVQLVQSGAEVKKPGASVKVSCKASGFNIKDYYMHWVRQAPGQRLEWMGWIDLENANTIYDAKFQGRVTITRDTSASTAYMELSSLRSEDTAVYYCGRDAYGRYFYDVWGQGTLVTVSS
T8 sequence (VL, as listed by the source limits assumed, chain 2 of 2): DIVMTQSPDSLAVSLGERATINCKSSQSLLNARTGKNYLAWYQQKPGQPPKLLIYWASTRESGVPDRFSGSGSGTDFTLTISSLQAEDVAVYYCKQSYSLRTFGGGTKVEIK
T32 sequence (VH, as listed by the source, chain 1 of 2): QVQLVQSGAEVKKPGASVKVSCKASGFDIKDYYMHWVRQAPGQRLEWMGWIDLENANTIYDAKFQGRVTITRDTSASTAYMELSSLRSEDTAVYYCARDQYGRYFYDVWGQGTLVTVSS
T19 sequence (VH, as listed by the source, chain 1 of 2): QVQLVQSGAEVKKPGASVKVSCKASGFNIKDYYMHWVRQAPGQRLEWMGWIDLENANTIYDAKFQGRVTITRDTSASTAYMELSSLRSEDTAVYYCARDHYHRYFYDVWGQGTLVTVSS
T19 sequence (VL, as listed by the source, chain 2 of 2): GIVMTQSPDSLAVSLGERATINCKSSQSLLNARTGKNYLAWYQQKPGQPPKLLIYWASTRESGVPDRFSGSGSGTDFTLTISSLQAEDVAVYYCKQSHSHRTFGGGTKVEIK
T21 sequence (VL, as listed by the source, chain 2 of 2): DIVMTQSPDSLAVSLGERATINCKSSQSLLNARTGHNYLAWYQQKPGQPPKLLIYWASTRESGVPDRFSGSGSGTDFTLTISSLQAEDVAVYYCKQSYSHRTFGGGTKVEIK
T15 sequence (VL, as listed by the source, chain 2 of 2): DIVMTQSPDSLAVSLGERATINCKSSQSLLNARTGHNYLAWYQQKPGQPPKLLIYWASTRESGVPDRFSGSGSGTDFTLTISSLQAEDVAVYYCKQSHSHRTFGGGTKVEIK
T20 sequence (VH, as listed by the source limits assumed, chain 1 of 2): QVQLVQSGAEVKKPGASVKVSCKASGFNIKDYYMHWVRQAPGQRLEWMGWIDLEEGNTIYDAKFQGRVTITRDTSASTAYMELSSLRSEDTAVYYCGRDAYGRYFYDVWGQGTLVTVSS
T4 sequence (VH, as listed by the source, chain 1 of 2): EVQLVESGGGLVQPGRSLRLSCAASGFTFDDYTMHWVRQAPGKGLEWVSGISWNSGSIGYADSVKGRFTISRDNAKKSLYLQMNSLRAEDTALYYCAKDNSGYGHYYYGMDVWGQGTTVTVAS
T4 sequence (VL, as listed by the source, chain 2 of 2): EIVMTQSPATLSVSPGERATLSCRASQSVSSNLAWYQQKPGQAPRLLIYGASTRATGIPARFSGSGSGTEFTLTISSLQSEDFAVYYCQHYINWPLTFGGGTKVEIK
T11 sequence (VH, as listed by the source, chain 1 of 2): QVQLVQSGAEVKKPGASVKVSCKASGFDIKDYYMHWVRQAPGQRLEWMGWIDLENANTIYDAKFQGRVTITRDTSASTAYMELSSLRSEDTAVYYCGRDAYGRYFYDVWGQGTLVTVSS
T36 sequence (VH, as listed by the source, chain 1 of 2): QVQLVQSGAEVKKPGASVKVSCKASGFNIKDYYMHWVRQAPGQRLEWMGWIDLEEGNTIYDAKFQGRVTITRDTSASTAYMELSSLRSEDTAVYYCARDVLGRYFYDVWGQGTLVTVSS
T10 sequence (VH, as listed by the source limits assumed, chain 1 of 2): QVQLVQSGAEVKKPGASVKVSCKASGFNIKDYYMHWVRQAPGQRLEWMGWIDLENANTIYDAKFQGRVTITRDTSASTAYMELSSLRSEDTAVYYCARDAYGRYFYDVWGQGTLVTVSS
T27 sequence (VH, as listed by the source limits assumed, chain 1 of 2): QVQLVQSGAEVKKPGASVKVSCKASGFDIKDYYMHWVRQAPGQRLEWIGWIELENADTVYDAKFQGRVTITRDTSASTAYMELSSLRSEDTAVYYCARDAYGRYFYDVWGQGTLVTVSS
T27 sequence (VL, as listed by the source limits assumed, chain 2 of 2): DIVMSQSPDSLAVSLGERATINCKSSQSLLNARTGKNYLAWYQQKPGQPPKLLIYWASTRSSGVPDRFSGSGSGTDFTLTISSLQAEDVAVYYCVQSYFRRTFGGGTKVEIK
T23 sequence (VH, as listed by the source, chain 1 of 2): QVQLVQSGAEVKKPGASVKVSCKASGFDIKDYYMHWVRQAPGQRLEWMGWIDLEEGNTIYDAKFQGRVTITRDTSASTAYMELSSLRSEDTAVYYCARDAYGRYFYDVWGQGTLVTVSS
T29 sequence (VH, as listed by the source, chain 1 of 2): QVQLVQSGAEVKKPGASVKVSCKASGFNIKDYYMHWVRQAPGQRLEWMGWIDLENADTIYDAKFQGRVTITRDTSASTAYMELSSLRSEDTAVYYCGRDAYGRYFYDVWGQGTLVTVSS
T22 sequence (VH, as listed by the source limits assumed, chain 1 of 2): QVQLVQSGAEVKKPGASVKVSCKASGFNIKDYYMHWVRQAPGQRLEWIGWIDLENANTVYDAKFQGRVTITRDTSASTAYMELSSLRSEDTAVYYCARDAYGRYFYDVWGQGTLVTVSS
T18 sequence (VH, as listed by the source, chain 1 of 2): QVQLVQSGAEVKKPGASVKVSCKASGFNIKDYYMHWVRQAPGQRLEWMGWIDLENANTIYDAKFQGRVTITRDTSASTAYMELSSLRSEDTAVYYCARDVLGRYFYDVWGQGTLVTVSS

B1: ADI-34133 (antibody, V domains shown)
VH: QVQLVQSGAEVKKPGSSVKVSCKASGGTFSSYAISWVRQAPGQGLEWMGGIIPIFGTANYAQKFQGRVTITADESTSTAYMELSSLRSEDTAVYYCARGAPNYYGSGGYDDGWFDPWGQGTLVTVSS
VL: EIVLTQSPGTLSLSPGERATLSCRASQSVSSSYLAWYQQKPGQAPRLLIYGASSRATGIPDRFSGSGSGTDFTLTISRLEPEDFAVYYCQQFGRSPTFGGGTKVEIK
notes: anti-ID IgG
For B1, the Kd (ADI-22523 Fab) was 9.59 nM, the binding result (CTL-62228) was “no binding (tested: up to 200 nM)” and the binding result (ADI-48576) was “no binding (tested: up to 200 nM)”. B1: no binding (tested: up to 200 nM) (CTL-62227); no binding (tested: up to 200 nM) (ADI-48592); no binding (tested: up to 200 nM) (CTL-62240). The Kd (ADI-22523 IgG) was 0.59 nM, the Kd (ADI-26920 IgG) was 0.24 nM and the Kd (ADI-26906 IgG) was 0.3 nM. The Kd (ADI-26919) was 0.35 nM, the Kd (ADI-76359) was 0.24 nM and the Kd (ADI-70330) was 1.9 nM. For the same binder, the Kd (ADI-67450) was 2 nM, the Kd (ADI-67445) was 1.1 nM and the Kd (ADI-48587) was 20 nM. The Kd (ADI-74965) was 18 nM, the binding result (ADI-70327) was “binds” and the Kd (ADI-26912) was 52 nM. For the same binder, the Kd (ADI-74967) was 1.9 nM, the Kd (ADI-26909) was 1.3 nM and the binding result (ADI-74966) was “binds”. For the same binder, the Kd (ADI-50024) was 1.1 nM, the Kd (ADI-76361) was 0.91 nM and the Kd (ADI-26921 IgG) was 0.96 nM. The binding result (ADI-76358) was “binds”, the Kd (ADI-48650) was 40 nM and the binding result (ADI-70326) was “binds”. The Kd (ADI-26913 IgG) was 1.9 nM, the Kd (ADI-76360) was 1.7 nM and the Kd (ADI-76362) was 2 nM. It also gave a Kd (ADI-26924) of 1.1 nM, a Kd (ADI-76357) of 0.96 nM and a Kd (ADI-74968) of 8.2 nM. For the same binder, the Kd (ADI-26943) was 0.65 nM, the Kd (ADI-67447) was 1.3 nM and the binding result (ADI-26915) was “binds”. B1: binds (ADI-26916 IgG).
